Assay: yeast display, Sf9 membrane polyspecificity reagent, FACS + sequencing; frameworks hold sequencing errors
How it was run: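 Using colony PCR, genes from sorted yeast display clones were amplified, then sequenced on MiSeq at 2 × 250 and filtered by CDR length. The clones had been stained with 10% biotinylated, detergent-solubilized Sf9 membrane reagent for 1 hour at 4 °C and sorted by FACS into low and high (top ~1%) gates on anti-HA and streptavidin fluorescence. Polyreactivity labels come from the gate of origin.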

| Sequence | polyreactivity (PSR sort gate) |
| --- | --- |
| QVQLVESGGGLVQAGGSLRLSCAASGSIFGSYVMVWYRQAPGKERELVAAISKSGGRTYYADSVKGRFTISRDNAKNTVYLQMKSLKPEDTAVYYCAVLPRVKDGTGGDYWGQGTQVTVSS | high polyreactivity |
| QVQLVESGGGLVQAGGSLRLSCAASGSIFGTNAMGWYRQAPGKERELVAAINSGGSTNYADSVKGRFTISRDNAKNTVYLQMNSLKPEDTAVYYCAADEGLWSPSRNAYDYDYWGQGTQVSVSS | low polyreactivity |
| QVQLVESGGGLVQAGGSLRLSCAASGSIFGTNGMGWYRQAPGKERELVAAITRRGGSTYADSVKGRFTISRDNAKNTVYLQMNSLKPEDTAVYYCAAQGYLRLRTHFNYWGQGTQVTVSS | low polyreactivity |
| QVQLVESGGGLVQAGGSLRLSCAASGSIFGTYAMGWYRPAPGNERELVAAITWRDDGNTYYADSVQGRFTISRDNAKNTVYLQMNSLQPEDTAVYYGAASRAYGKDAYRGYSYRYDYWGQGTQGTVSS | high polyreactivity |
| QVQLVESGGGLVQAGGSLRLSCAASGSIFGTYAMGWYRQAPGKERELVAAITSSGGSTYYADSVKGRFTISRDNAKNTVYLQMNSLKPEDTAVYYCAAYRRIRVGVPVRTYYYWGQGTQVTVSS | high polyreactivity |
| QVQLVESGGGLVQAGGSLRLSCAASGSIFGVNALGWYRQAPGKERELVASITGGDSTNYADSVKGRFTISRDNAKNTVYLQMNSLKPEDTAFYYCAKDHYYRYEEGDYWGQGTQVTVSS | low polyreactivity |
| QVQLVESGGGLVQAGGSLRLSCAASGSIFGVNVMGWYRQAPGKERELVASISGGGSTDYADSVKGRFTISRDNAKNTVYLQMNSLKPEDTAVYYCNAKYWWSNYYWGQGTQVTVSS | low polyreactivity |
| QVQLVESGGGLVQAGGSLRLSCAASGSIFGVYAMGWYRQAPGKEREFVASISWSAGSTYYADSVKGRFTISRDNAKNTVYLQMNSLKPEDTAVYYCAARVWRYPYYWGQGTQVTVSS | high polyreactivity |
| QVQLVESGGGLVQAGGSLRLSCAASGSIFGVYAMGWYRQAPGKERELVAAISSRGSSTYYADSVKGRFTISRDNAKNTVYLQMNSLKPEDTAVYYCAARPGIRSYPPGYGYWGQGTQVTVSS | high polyreactivity |
| QVQLVESGGGLVQAGGSLRLSCAASGSIFGVYAMGWYRQAPGKERELVATISRSGAITYYADSVKGRFTISRDNAKNTVYLQMNSLKPEDTAVYYCAADFFSRDWGQGTQVTVSS | low polyreactivity |
| QVQLVESGGGLVQAGGSLRLSCAASGSIFGVYTMGWYRQAPGKERELVAAISRNGGSTYYEDSVKGRFTISRDNAKNTVYLQMNSLKPEDTAVYYCATSTSRRYGSRHNYWGQGTQVTVSS | high polyreactivity |
| QVQLVESGGGLVQAGGSLRLSCAASGSIFGWYAMGWYRQAPGKEREFVAAISGGSTYYADSVKGRFTISRDNAKNTVYLQMNSLKPEDTAVYYCNAQGYYFYPFDYWGQGTQVTVSS | high polyreactivity |
| QVQLVESGGGLVQAGGSLRLSCAASGSIFGWYAMGWYRQAPGKERELVAAAIDYRDDSTYYADSVKGRFTISRDIAKNTVYLQMNSLKPEDTAVYYCAAEKDGDWRGYDYWGQGTQVTVSS | low polyreactivity |
| QVQLVESGGGLVQAGGSLRLSCAASGSIFGWYAMGWYRQAPGKERELVAAISSSDGSTYYADSVKGRFTISRDNANNTVYFPMNSLKPEDTEVYYCATDYAFTYAQYDYWGQGTQVTVSS | low polyreactivity |
| QVQLVESGGGLVQAGGSLRLSCAASGSIFGYAMGWYRQAPGKERELVAAIRWGGGSTYYADSVKGRFTISRDNAKYNVYLQMNSLKPEDTAVYYCAARVGRQWYDYWGQGTQVTVSS | high polyreactivity |
| QVQLVESGGGLVQAGGSLRLSCAASGSIFGYKAMGWYRQAPRKERELVAAIRSSDSRTHYADSVKGRFTISRDNAKNTVYLQMNRLKPEDTAVYYCAAVKRRPGHYLYDYWGQGTQVTVSS | low polyreactivity |
| QVQLVESGGGLVQAGGSLRLSCAASGSIFGYNAMGWSRQAPGKERELVAGITSGTSTNYADSVKGRFTISRDNAKNTVYLQMNSLKPEDTEVYYCARTSYRFYRKRYYWGQGTQVTVSS | high polyreactivity |
| QVQLVESGGGLVQAGGSLRLSCAASGSIFGYNAMGWYRQAPGKERELVAAISRSGGRTYYADSVKGRFTISRDNAKNTVYLQMNSLKPEDTAVYDCAAPVWRYYRGKTFDYWGQGTQVTVSS | high polyreactivity |
| QVQLVESGGGLVQAGGSLRLSCAASGSIFGYNTMGLYRKAPGKERELVAAISYRGGSTYADSVKGRFTISRDNAKNTVYLQMNSLKPVDTAVYYCDKRSIVGYRYSGYDYCGQGTQVTVSS | high polyreactivity |
| QVQLVESGGGLVQAGGSLRLSCAASGSIFGYNVMGWYRQAPGKEREFVAAITYRGGGTYADSVKGRFTISRDNAKNTVYLQMNSLKPEDTAVYYCAARWYGWRSRRYDYWGQGTQVTVSS | high polyreactivity |
| QVQLVESGGGLVQAGGSLRLSCAASGSIFGYYAKGWYRQAPGKERELVAAIDSGGGSTYYADSVRGRVTISRDNAKNTVYIQMNRLKPEDTAVYYCAAVSYSYPSLLYEYWGQGTQVTVSS | low polyreactivity |
| QVQLVESGGGLVQAGGSLRLSCAASGSIFGYYAMGWSRQAPGKERELVASISSTGSTYYADSVKGRFTISRDNAKNTVSLQMNSLKPEDTAVYYCAADTLIFPWGFESWGQGTQVTVSS | high polyreactivity |

| Sequence | polyreactivity (PSR sort gate) |
| --- | --- |
| QVQLVESGGGLVQAGGSLRLSCAASGSIFGYYAMGWYIQAPGKERELVAAISWSGGSTYYADSVKGRFTISRDNAKNTVYLQMNSLKPEDTAVYYCNAYTRRGGHDYWGQGTQVTVSS | high polyreactivity |
| QVQLVESGGGLVQAGGSLRLSCAASGSIFGYYAMGWYRQAPGKERELVAAIRGSSGSTYYADSVKGRFTISRDNAKNTVYLQMNSLKPEDTAVYYCAADYRTYVYVYGFRHFDYWGQGTQVTVSS | low polyreactivity |
| QVQLVESGGGLVQAGGSLRLSCAASGSIFGYYAMGWYRQAPGKERELVAAITTRGGRTYYADSVKGRFTISRDNAKNTVYLQMNSLKPEDTAVYYCAARTGRGRYDYWGQGTQVTVSS | high polyreactivity |
| QVQLVESGGGLVQAGGSLRLSCAASGSIFGYYAMGWYRQAPGKERELVATITTRGARTYYADSVKGRFTISRDNAKNTVYLQMNSLKPEDTAVYYCAAYGYYNFGYYYWGQGTQVTVSS | high polyreactivity |
| QVQLVESGGGLVQAGGSLRLSCAASGSIFGYYAMGWYRQAPGKERELVAVITRDASTYYADSVKGRFTISRDNAKNTVDLQMNSLKPEDTAVYYCAADRWWRRSWVKLDYWGHGTQVTVSS | low polyreactivity |
| QVQLVESGGGLVQAGGSLRLSCAASGSIFGYYAMGWYRQAPGNERELVAAISRSGGSTYYADSVKGRFTISRDNAKNTVYLQMNSLKPEDTAVYYCAADDYPYGNYYWGQGTQVTVSS | high polyreactivity |
| QVQLVESGGGLVQAGGSLRLSCAASGSIFGYYGMGCYIQAPGKERELVAAISARGGSTYYADSVKGRFTISRDNAKNTVYFQMNRLKPEDTAVYYCAVRYPGSRYLISKNGYWGQGTQVTVSS | high polyreactivity |
| QVQLVESGGGLVQAGGSLRLSCAASGSIFGYYPMGWYRQAPGKERELVAAITSGGNTYYADSVKGRFTISRDNAKNTVYLQMNSLKPEDTAVYYCNAVWRTRDYDYWGQGTQVTVSS | low polyreactivity |
| QVQLVESGGGLVQAGGSLRLSCAASGSIFGYYTMGWYIQAPGKERELVARITRGGSTYYADSVKGRFTISRDNAKNTVYLQLNSLKPEDTAVYYCAARRVNAGWTYGLRGNYWGQGTQVTVSS | low polyreactivity |
| QVQLVESGGGLVQAGGSLRLSCAASGSIFHHNAMGWYRQAPGKERELVAAISSRSGNTYYADSVKGRFTISRDNAKNTVYLQMNSLKPEDTAVYYCAKAFRGHYWGQGTQVTVSS | high polyreactivity |
| QVQLVESGGGLVQAGGSLRLSCAASGSIFHIYAMGWYRQAPGKERELVAAMTYADSVKGRFTISRDNAKNTVYLQMNSLKPEDTAVYYCNADNWPRIHGSAYDYWGQGTQVTVSS | low polyreactivity |
| QVQLVESGGGLVQAGGSLRLSCAASGSIFHNYDMGLYRQAPGKEREMVADISRGGDTNYADSVKGRFTISRDNAKNTVYLQLNSLKPEDTAVYYCNATYWILDSPWWRETFAYWGQGTQVTVSS | low polyreactivity |
| QVQLVESGGGLVQAGGSLRLSCAASGSIFHPYTMGWYRQAPGKERELVAAISWSGGNTNYADSVKGRFTISRDNAKNTVYLQMNSLKPDDTAVYYCIKATNLSGGYDSWGLGTQVTVSS | low polyreactivity |
| QVQLVESGGGLVQAGGSLRLSCAASGSIFHRNAMGWYRQAPGKEREFVAAISWRGGSTYYADSVKGRFTISRDNAKNTVYLQMNSLKPEDTAVYYCAADPVGYYWSRRSEFYYWGQGTQVTVSS | high polyreactivity |
| QVQLVESGGGLVQAGGSLRLSCAASGSIFHRNAMGWYRQAPGKERELVATISSSTGSTNYADSVKGRFTISRDNAKNTVYLQMNSLKPEDTAVYYCAAAPHRHSWYYTRHPYFGMDYWGQGTQVTVSS | low polyreactivity |
| QVQLVESGGGLVQAGGSLRLSCAASGSIFHRYAMGWYRQAPGKERELVAAISRRGGSTYYADSVKGRFTISRDNAKNTVYLQMNSLIPVDTAVYYCNASLAGSSGRNRFEYWGQGTQVTVSS | high polyreactivity |
| QVQLVESGGGLVQAGGSLRLSCAASGSIFHWYAMGWYRQAPGKERELVAAISYSGASTYYADSVKGRFTISRDNAKITVYLQMNSLKPDDTAVYYCAAKVTGKGYYWGQGTQVTVSS | high polyreactivity |
| QVQLVESGGGLVQAGGSLRLSCAASGSIFHYNAMGWYRQAPGKERELVAAISWRGGTTYYADSVKGRFTISRDNAKNTVYLQMNSLKPEDTAVYYCNRAYVYTYQRRDYDYWGQGTQVTVSS | low polyreactivity |
| QVQLVESGGGLVQAGGSLRLSCAASGSIFIGYAMGWYRQAPGKERELVAAISNSGGRTYYADSVKGRFTISRDNAKNTVYLQMNSLKPEDTAVYYCNVAYRIPYRMDYWGQGTQVTVSS | high polyreactivity |
| QVQLVESGGGLVQAGGSLRLSCAASGSIFIHYAMGWYRQAPGKERELVAAISRTGSTYYADSVKGRFTISRDNAKNTVYLQMNSLKPEDTAVYYCAKRISTRRYDYWGQGTQVTVSS | low polyreactivity |
| QVQLVESGGGLVQAGGSLRLSCAASGSIFINNGMGWYRQAPGKERELVAAINGGDGSTYYADSVKGRFTISRDNAKNTVYLQMNSLKPEDTAVYYCAKDYTIGYTYQYDYWGQGTQVTVSS | low polyreactivity |

Source: the nanobody polyreactivity screen of Harvey et al. (2022)
